We go through 21 sequences from a protein production outcome set (Wang et al. 2014).
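Note: failed if final PepcDB status was selected cloned or expressed and not failed if soluble or beyond.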

This data set can be described thus: label from the status in PepcDB records.
As for “MINEIGHYVLVLALGVGLIVSTLPVIGARRNDRALMDVASLGSVLMFLLVGFSFAALTHAYAVSDFSVRNVWENSHSLMPMLYKLTGVWGNHEGSMLLWLLILVFFSALVAAFGGNLPETLKANVLAVQAWISVAFLLFILLTSNPFLRLERVPAEGQDLNPILQDFGLAIHPPLLYLGYVGFSVCFSFAVAALLEGRIDAAWARWVRPWTLAAWTFLTAGISMGSYWAYYELGWGGWWFWDPVENASFMPWLAGTALLHSALVMEKREALKIWTVLLAIMTFSLSLLGTFLVRSGVLTSVHAFATDPSRGIFILGILTIFIGGAFALFAWRAPSLKAGGLFAPISREGALVLNNLILTVSTATVLIGTLYPLILETLTGEKISVGAPFFNLTFGLLMIPVLIVTPFGPMLAWKRGDLLGAFQRLYVAAAIAALAGLTLWYIENGGPVLAALGIAAGFWLIFGALTDLWYRANFGKLAFGIAFRRLKGLPRSAFGTALAHMGLGITVLGIVIVTTYETETVLEMKQGTVAEAGGYSLTFDGIRHAVGPNFTEDRGHFTVRKAGVEVADVWSSKRLYTARRMPTTEAGILTFGLSQLYVSLGDPMADGGMVVRIWWKPFILCIWGGTLFMMAGGFISLSDRRLRVGAPTRKAKPVRAAMPEAAE”, the protein production entry is “failed”. To “MTRVTTTGIPMNNVPSGRHHVSTSRNLFAWFLFALLLLSLYLSYQLVAPFLHTIILSSVFSASIYPFYRRLTSYLGERPVPAALLVLAGVVILVVIPVVVFVIGLIPQAVASVSAITRWLAGHGGLDGLNDAALAPYIAWVRENLPFIDPAQLDVRSSLVQASRAAGQTLLQWGTYVLGNTLLLFGHFLLLLLCMFFMLKDGAWMVQRVRYLSPLRIDQQDRIILELRRVGRSVLVGGLLVAVIQGLLGGVALAAVGIPALFWGTLMAFASLVPVVGTGLVWVPAVCYLLLTSQWESALFLSLWCGIVVVGADSILRPYFMRGGVGMPVFFIFLSILGGVKAFGMLGILDGPLILSFTVVMLSLYGDEYRDILDAGSLAHSRGAECEKGEASEEGPDGT” belongs “failed”; to “MAAKQGESDPERKETRQKVDDDRKHEIEAAIVRIMKSRKKMQHNVLVAEVTQQLKARFLPSPVVIKKRIEGLIEREYLARTPEDRKVYTYVA”, “not failed”.

In the case of “MSLKYFKRLSDRERAIFEAGITLGAIYHQFCGTPVSPGTAEEVAKCIERAALLQPCVIDARVEVDVSSEDTDNYGGYTEVSGRNLRVTIVTRCGEWEAVGKLEFIEELNYPLMWVEEIRRVEQEGHHHHHH”, the protein production result is “not failed”. For “MLKSVNLPVCHSLRNHLAVSSISTTPPSLIIPLLSPIFLRISSSSSNSVILNFSVKASFLVSKILLINLRAGFTGSLILSAGKPPFITSSSKSSIGTTPGVSKSQIFLVSLIICLPFVYPGIGAVPTECFPLSTFIIVLFPTFGYPINATLTLSLLIIFAIFFSSLLRIPVPFLSLAEIKTTGISLFLLYSSAHSLGTKSALFITNKSFLPLSKTILSSFLFLVPMGSLASTTSTTMSASSITSFTIAQAFFCFIPHHRYFKDYGTPWGIRGARVGTLDVGLILGSKPYFFWLHAFSERYYVG”, the protein production entry is recorded as “failed”. To “MGPIGAEADENQTVEEMKVEQYGPQTTPRGELVPDPEPELIDSTKLIEVQVVLILAYCSIILLGVIGNSLVIHVVIKFKSMRTVTNFFIANLAVADLLVNTLCLPFTLTYTLMGEWKMGPVLCHLVPYAQGLAVQVSTITLTVIALDRHRCIVYHLESKISKRISFLIIGLAWGISALLASPLAIFREYSLIEIIPDFEIVACTEKWPGEEKSIYGTVYSLSSLLILYVLPLGIISFSYTRIWSKLKNHVSPGAANDHYHQRRQKTTKMLVCVVVVFAVSWLPLHAFQLAVDIDSQVLDLKEYKLIFTVFHIIAMCSTFANPLLYGWMNSNYRKAFLSAFRCEQRLDAIHSEVSVTFKAKKNLEVRKNSGPNDSFTEATNV” belongs “failed”. To “MRRLFPEESEALLFKTLNYIPIPILLSEALAVEGRRPSTHRIHRFMNHAFVEQLGYNLSEIPNIAAWFDTVYPDPIIREQAMLEWDSVVYESEQQGLSTAGFKTFIRCGTGQFRWFLINAQLTTENQSNLNIVTMRDVHQLQLLLEENERQSKTDLLTGLANRRQIEDVLAAAMAKSDRTQSSLCVVMCDIDFFKNINDNFGHLCGDDVLKIVASQLQHSAQAATCIARWGGEEFLIVLEHVVPESAGVLCEQLRGLIAATDYQSYGQHMQLTMSFGCVQYQANESLQSLLCRVDKALYQAKNGGRNQVVMD” belongs “failed”. In the case of “MATVERAMMLKTMRKHGVTLALFAAGSTGLTAAINELTKSTIDQQAALQQKALFDQVLPADRYNNDLLKSCYLVSAPALGKGQHKVWIAKNNDRPIGAVMEATAPDGYSGAIQLLVAADFSGTVLGTRVTEHHETPGLGDKIELRLSDWITHFAGKVIHGQGDSHWAVKKDGGDFDQFTGATITPRAVVNAVKRAGLYAQTLPAQLPEFTACGE” it was “failed”; in that of “IRTHLNLPSDKKVIMYAPTWRDDEFVSKGKYLFELKIDLDNLYKELGDDYVILLRMHYLISNALDLSGYENFAIDVSNYNDVSELFLISDCLITDYSSVMFDYGILKRPQFFFAYDIDKYDKGLRGFYMNYMEDLPGPIYTEPYGLAKELKNLDKVQQQYQEKIDAFYDRFCSVDNGKASQYIGDLIHKDIKEQ”, “failed”; in that of “MDLFSNLALGFQVAASPTNLLLCLTGALVGTLIGVLPGIGTIATVAMLLPITFGLPPVGALIMLAGIYYGAQYGGSTTSILVNIPGEATSVVTTLDGFQMAKQGRAGPALAIAAIGSFAAGCFATVLIALVGEPLTRLALEFGPAEYFSLMVLGLVFAVVLARGSVLKAVAMIVLGLLLSTVGSDIETGVSRMTFDVPELADGLGFATVAMGVFGFAEIIRNLDFGAATDRELVQQKITGLMPTRKDLRDAAPAIGRGTLLGSLLGILPGGGAVIASFAAYTLEKKIARDPKRFGRGAIEGVAAPESANNAAAQTSFIPLLTLGIPPNAVMALMVGAMTIHNIVPGPQVMKNQPELVWGMIASMWIGNLMLLVINLPLVGIWVRLLRVPYRLMFPSIVVFCCIGIYSVNNAPVDVVLAGAFGLIGYWLVKHDFEPAPLLLGMVLGPLMEDNLRRALLISRGDATAFVTRPLSASLLVVAAGLLILSVLPMLRRKRDEVFVESEG”, “failed”. Take “MPSSDLRAFVVRVVIVLALVAYAWLLWALSGLLLMVFGAVVVAVLLRALASWVTRYTPLSDGMALGLVVVVVAVGFTALLWLFGSQLATELGALQRTLPQAWARFHDWVAAGPLGPALEELTRQAPARVSNLAPRAGAFALSITGGVANLFLVLAGAVYLAAQPQLYRRGVLLLFPVQVRATMDDAVRASGTALRLWLRGQLLAMVVVGALTGLGLWALGIPGALALGIIAGLLDFVPIVGPILAAIPAILLGFTVSPQMALATAALFVVVQQIEGNILLPLIQQRTVDLPPVLLLFSLFGIGTLLGPAGVLLAAPLTVVAFVLVKRLYVQEALHTPTSIPGQKHH”: the protein production result was “failed”. To “MQFTDGGKEVELRLRLKTGEILSPKDISVDADGTSLAVKEKRNGLLITLLETNHLFEKIMPSETIWYIDEDQLVVNMKKVDGELKWPDIVESWESLTAGMMQLLKGASIYIVGDSTEINQKVSRELAVGLGYSPLDSKELLESFSKQTIDSWILAEGPDSVAEAESSVLESLSSHVRTVVSTLGGKHGAAGRADQWRHLYSGFTVWVSQTEATDEESAKEEARRSKQEREIGYSNADVVVKLQGWDPTHAKSVAQASLSALKQLIISDKGLPGNK” belongs “failed”; to “MIVITGASSGLGAELAKLYDAEGKATYLTGRSESKLSTVTNCLSNNVGYRACDLASHQEVEQLFEQLDSIPSTVVHSAGSGYFGPLEKQDPDQIQTLIENNLSSAINVLRELVKRYKDQPVNVVMIMSTAAQQPKAQESTYCAVKWAVKGLIESVRLELKGKPMKIIAVYPGGMATEFWETSGKSLDTSSFMSAEDAALMILGALANIGNGYVSDITVNRL”, “failed”. In the case of “MINSGTLITKIEELQSTLAKMDIALGTVDEAIVWTDGTGQIQWCNTAFDHLMGKLHILILGKNLVELLPLHRNSQPLEVSHHPFTIIVATQQKFTDHYEFNQNGKWLHLEIMTSPLMNAQGAVLVIRDISDRHLQEQTLQQLNENLEKRVLERTQAVSLIN” it was “failed”. For “MNEDGNDTPRPLGEVPEFRRIRSGPLPPHQNIPPRRRAPADQLPWLPSAAARRRRAALLLCGFLSAVVLLVSGSSWAVTGWLSDQLHRYDVFTGLLDENRPPASQGALNFLVIGSDDRSGLDSRQRSELGVGNVEGRRSDTMMLVHLNHQREHITVVGIPRDSWVRIPGHGPDKINAAYSLGGPQLAVQTVEAATGVRIDHYVEIDFTGFVEVVDTLGGITVCLPEAIHDEKAHLSLEAGTHRLQGTQALAFARTRKSPHGDLDRIDRQQQVLAALLDEALNAQILSDPARLAQFVETALGSITVDDTLDTAALIQLGTQLRSLGLDDVTFTQVPVDRIDFWTPSGEVAVTWHEQHATELFTAIAADRPIPQPQSAEDSALPSPDEVTVEVYNGTTIPGLGAQVRVELLESGFQVPESAGNWPQQDLAETLVRYSPEREDAATLLVESIPGARAEVDPGLGGRVQVIAGVNHTGVAVPAHAASPIAEQPVDVGGRETVHTRTAAENVCR”, the protein production entry is given as “failed”. In the case of “GKPKTDTDFQTYNGDGFKLQIPSKWNPNKEVEYPGQVLRFEDNFDATSNVIVAITPTDKKSITDFGSPEQFLSQVDYLLGRQAYSGKTDSEGGFESDAVAIANVLETSTAEVGGKQYYYLSILTRTADGNEGGKHQLVTATVNDGKLYICKAQAGDKRWFKGAKKFVENTATSFSLA” it was “not failed”; in that of “EPLKDAVLIEGLPGIGHVGRVAAEHIVEEFNGEKVLELYCDDFPPQIVVKNDGTIEYMKNEFYLVKEPVPMVIVLGNTQALSPKGQYVLSEKIVDIAMKYGATKTYTLGGFGIGKISDELKVYVASTSKELSEQHKELGAEFRTDGGSIIGAAGLMLKFSKLKGIEGICLMGETPGYLVDPKSAGNVLEMLSKAIGFEIDMKKLDERAKEMEKFIEKVQMQEQGMQAPQHQDDLSYIG”, “failed”; in that of “MAERLGILVGGGPAPGINSVISSVTIEAINNGLEVIGIYDGFKHLVEGKTNMVKKLSIEDVSRIHIEGGSILRTSRVNPAKSEETLEKTVQTLKKLGIKYLVTIGGDDTAFSASKVCERSKGEIKVVHVPKTIDNDLPLPENMPTFGFETARHVATELVYNLMQDSRTTNRWYFVAMMGREAGHLALGVGKAASATITIIPEEFKEGVTLEEVCDVLDGAILKRKLMGRDDGVAVIGEGIAEKMDPEELANIPGVIVEKDPHGHLRLAEIPLATILKRAIERRYAERGERIHIVDVTIGYELRSARPIPFDIVYTRTLGYGAVRFLLGDYSDLPGGMVCVVGGRIKILPFDAFMDPKTGRTKVRVVDVRSEDYRVARKYMIRLEKKDLEDPETLEKLAKLAKMEPEEFKKKYWHTTELP”, “failed”. In the case of “MEDELPIIKGKKVILFAPTFRGSGHGTAHYPFFKIDFERLARYCEKNNAVVLFKMHPFVKNRLNIADKHKQYFVDVSDFREVNDILFITDLLISDYSSLIYEYAVFKKPMIFYAFDLEDYITTRDFYEPYESFVPGKIVQSFDALMDALDNEDYEGEKVIPFLDKHFKYQDGRSSERLVRNLFGS” it was “not failed”; in that of “MGIIAWIVFGFVIGLIARAVVPGKQSLGFVMTTLLGIAGSLIGGLVASAFAGTSGTTFQTAGFIGSLVGAIVLLVIAGMVTTPRRRTV”, “failed”; in that of “DCLLPIVAAPMAGGPTTVALAQAVSGVGGFPFLAGGYKSVEALATEIAVLRASGGNFGVNLFVPSPDMVDAEAFRIYAAKLQSEALPYGLRLDPLPVMGDDDGWPDKLALLLNDPVPVVSFTFGLPAVRDIAALRCAGSRVLASVTLPAEAQAAMEAGVDGLVVQGPDAGGHSATYDPGRPFTPLKTVSLVRRVCAVSSLPVIAAGGVDGPVMVRALLQAGAAAVAIGTLLLRTKESGATQVHKDALANPAYTETVITHAFTGRPARTLRNGFVNRYHASAPLGYPAIHHLTRPLRQAAASAGDADVLHLWAGTGYRQAMDGSAVDVIQ”, “failed”.
